Assay results: PMC9064290

Molecular target: α1-specific anti-SynGAP antibody (06–800)
Experiment: western blot of cell lysates, band intensity quantified
Details: H293T cells transfected with wild-type or PBM EGFP-SynGAPα1; probed with Pan-SynGAP (D20C7) and α1-specific antibody; n = 4; parent: est. 1.0; read off a plot

EGFP-SynGAPα1 T/I; V/E (C-terminal PDZ-binding motif QTRV changed to QIRE)
ratio to parent: 0.45
